These results are taken from patent publication US20040087497.

One data set has as its target T1, Suc-βAla-Leu-Ala-Leu-Dox.
T1 chain: XLAX

The target in another data set is T2, Suc-Leu-Ala-Gly-Dox.
T2 chain: XAX

B1: human CD10 (protein)
chain: GKSESQMDITDINTPKPKKKQRWTPLEISLSVLVLLLTIIAVTMIALYATYDDGICKSSDCIKSAARLIQNMDATTEPCTDFFKYACGGWLKRNVIPETSSRYGNFDILRDELEVVLKDVLQEPKTEDIVAVQKAKALYRSCINESAIDSRGGEPLLKLLPDIYGWPVATENWEQKYGASWTAEKAIAQLNSKYGKKVLINLFVGTDDKNSVNHVIHIDQPRLGLPSRDYYECTGIYKEACTAYVDFMISVARLIRQEERLPIDENQLALEMNKVMELEKEIANATAKPEDRNDPMLLYNKMTLAQIQNNFSLEINGKPFSWLNFTNEIMSTVNISITNEEDVVVYAPEYLTKLKPILTKYSARDLQNLMSWRFIMDLVSSLSRTYKESRNAFRKALYGTTSETATWRRCANYVNGNMENAVGRLYVEAAFAGESKHVVEDLIAQIREVFIQTLDDLTWMDAETKKRAEEKALAIKERIGYPDDIVSNDNKLNNEYLELNYKEDEYFENIIQNLKFSQSKQLKKLREKVDKDEWISGAAVVNAFYSSGRNQIVFPAGILQPPFFSAQQSNSLNYGGIGMVIGHEITHGFDDNGRNFNKDGDLVDWWTQQSASNFKEQSQCMVYQYGNFSWDLAGGQHLNGINTLGENIADNGGLGQAYRAYQNYIKKNGEEKLLPGLDLNHKQLFFLNFAQVWCGTYRPEYAVNSIKTDVHSPGNFRIIGTLQNSAEFSEAFHCRKNSYMNPEKKCRVW
Turning to B1, in the data set with Suc-βAla-Leu-Ala-Leu-Dox, the Percent Conversion/Hour to Leu-Dox, CD10 transfected CHO Clone 8 (Percent Conversion/Hour) turned out to be 3 and the conversion rate to Leu-Dox, CD10 transfected CHO Clone 8 was determined as 0.3 mM/h. In the data set with Suc-Leu-Ala-Gly-Dox, this protein registered a Percent Conversion/Hour to Gly-Dox, CD10 transfected CHO Clone 8 (Percent Conversion/Hour) of 0.61 and a conversion rate to Gly-Dox, CD10 transfected CHO Clone 8 of 0.06 mM/h.
